This test addresses Programmed cell death-1 (human (endogenous in PBMCs)) (UniProt Q15116).
Chain of UniProt Q15116 (Q15116 25-288): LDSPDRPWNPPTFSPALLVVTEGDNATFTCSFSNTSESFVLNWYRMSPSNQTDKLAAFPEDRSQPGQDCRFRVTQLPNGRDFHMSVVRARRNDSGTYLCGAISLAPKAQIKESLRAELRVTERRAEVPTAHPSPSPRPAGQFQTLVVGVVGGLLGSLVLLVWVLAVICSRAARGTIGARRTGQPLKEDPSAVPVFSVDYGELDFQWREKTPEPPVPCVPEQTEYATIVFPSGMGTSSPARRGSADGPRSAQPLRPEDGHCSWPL

As for “soluble monomeric human PD-L1 (from UniProt Q9NZQ7 19-229) (domain or fragment)”, the reduction of intracellular IFN-gamma in PBMCs stimulated with anti-CD3/CD28 antibodies (FACS) was determined as 55.3%, the reduction of intracellular IL-2 in PBMCs stimulated with anti-CD3/CD28 antibodies (FACS) came out at 32.5%, the reduction of intracellular IL-10 in PBMCs stimulated with anti-CD3/CD28 antibodies (FACS) was found to be 48.5% and the reduction of intracellular TNF-alpha in PBMCs stimulated with anti-CD3/CD28 antibodies (FACS) came to 47.3%.
Consider “soluble recombinant Fc fusion protein of hPD-L1 (from UniProt Q9NZQ7 19-229)”, for which the increase of intracellular IL-2 in PBMCs stimulated with anti-CD3/CD28 antibodies (FACS) worked out at 14.2% and the reduction of intracellular IFN-gamma in PBMCs stimulated with anti-CD3/CD28 antibodies (FACS) stood at 15.1%.
